From article PMC2542469 (The Journal of Cell Biology, 2008)

Biological target: T1, Full-length human histidine-tagged Ndel1 phosphorylated in vitro by both cdk5/p25 and cdk1/cyclin B (human, UniProt Q9GZM8 1-345)
T1 sequence: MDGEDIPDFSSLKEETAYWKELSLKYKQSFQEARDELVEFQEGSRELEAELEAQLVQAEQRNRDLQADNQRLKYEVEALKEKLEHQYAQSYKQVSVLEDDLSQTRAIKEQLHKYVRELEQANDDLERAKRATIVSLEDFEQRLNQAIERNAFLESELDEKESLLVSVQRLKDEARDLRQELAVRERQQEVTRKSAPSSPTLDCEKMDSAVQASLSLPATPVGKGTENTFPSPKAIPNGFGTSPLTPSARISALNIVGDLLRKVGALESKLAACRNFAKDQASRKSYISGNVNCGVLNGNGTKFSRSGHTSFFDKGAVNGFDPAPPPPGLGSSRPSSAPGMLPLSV
Assay: co-IP

fold more Lis1 pulled down than by unphosphorylated Ndel1: ~5 fold
B1: Full-length Lis1, histidine tag cleaved (natural protein)
chain: MVLSQRQRDELNRAIADYLRSNGYEEAYSVFKKEAELDVNEELDKKYAGLLEKKWTSVIRLQKKVMELESKLNEAKEEFTSGGPLGQKRDPKEWIPRPPEKYALSGHRSPVTRVIFHPVFSVMVSASEDATIKVWDYETGDFERTLKGHTDSVQDISFDHSGKLLASCSADMTIKLWDFQGFECIRTMHGHDHNVSSVAIMPNGDHIVSASRDKTIKMWEVQTGYCVKTFTGHREWVRMVRPNQDGTLIASCSNDQTVRVWVVATKECKAELREHEHVVECISWAPESSYSSISEATGSETKKSGKPGPFLLSGSRDKTIKMWDVSTGMCLMTLVGHDNWVRGVLFHSGGKFILSCADDKTLRVWDYKNKRCMKTLNAHEHFVTSLDFHKTAPYVVTGSVDQTVKVWECR
